Assay results taken from the DeepSol protein solubility set.

Test: soluble on expression in E. coli; label from the status in PepcDB or PDB records

Sequence	soluble on expression in E. coli
MGLVIYDTLARRKVPFEPAVPGHVGIYVCGPTVYADPHLGHARGPVVYDVLRRYLLHKGYKVRFVSNITDVGHLTDDADEGEDKIVRRAKLERLEPMEVAEKYTWSYFDAMQALNVLRPSIAPRASGHIPEMLELTERLLARGVAYERKGSVYFRVRSFPEYGKLSGKRLEELRAGARVEVREEKEDPLDFALWKAAEPGHIMRWKSPWGEGYPGWHIECTAMSLKYLGEGFDLHAGGIDLQFPHHECEIAQAEAAGFRFARHWMHHNHVLLEGEKMAKSTGNLVLLHDLLEAHEPMALRFYLLQTHYRSPMDFTWEGLESAKRGYGRLLHAYREVRGRKKTAPPGTTPELERALDALEKAFMEAIEDDLSTPEALAALFAFLPELHKLLPEAKAESLARAEAVFHTLGEGILGLFPERVLEERVSGPLLEGLIALLLELREEARRAKDYEKSDLIRERLRALGVIVEDTKEGPRWRLER	soluble
MAHHHHHHMSRTLTTTQPSVASSPASSSSGSTHQRPSADQLAETVHQMDEENALEFVSIDATSRDQVFHFLHDHPDATAVVNAVGLLTRNYEDARQVNGDVMTNIAAGVFHPKLAQSVQKVVYVSAEPYNLYSRRILGSKHLLKGYFHGKRIGEKAVLENLGNKGVVLRPSFIYGTRHVLVASAMNPDAVSTLSLPLGWIGLPLDKLLTAIGGGKLLMPPVCVDVVAEAAVRACAWANQPGKDIHGICDVYRMRDICNAVDPSLHEDRNGTVTASTASKEASTVKNDR	not soluble
MATIGLDRLYYAKITENENGEETYATPVPLAKAITAELSVELAEATLYADDGAAEVVKEFQSGTLTLGVADIGVDAAEVLTGATLDDNKVLISTSEDGGAPVAIGFRAKKANGKYRYFWLYRVKFGIPATNLQTKGDSITFSTPTIEGTVMRRNKPDGLEHHHHHH	soluble
TTNWLNYRAGSVAYEQAAEPLELLTEARIHAQRARTDETLALVWRQSLENSNHTFSTTLKRVDKALSKPGLDPAEVAAARNAMNTWRASHEELTNFLNSGRYEEALKLTTEGPSAFTDLDAALDSLIDSTRVRLRTEIRGVDTTQVN	not soluble
MGSDKIHHHHHHMSVLKATNSIEQRLQIQRLQAPTRVVTSTAGGDVVRGLTQTPKTLPPCYFYDDRGSELFERICELPEYYVTRTETAILQRFAGEIARITGACELVELGSGNSTKTRILLDAYQQLDYPLRYLPIDVCAGILESSAKQLLQDYPSLEVYALAGTYELALAQLTPKKLSSRMICFIGSTLGNLNLQECDVFLSQIRATLNVGEYFLLGVDLQKPKEILEPAYDDSQGVTAEFNLNMLEHLNRSFEGNFDTTQFKHWAFYNESEQRIEMHLKSERSQTVQLKSLNLTVNLAQGETILTEISRKFNLESIQQQLAAKGLIPVQTWTDVNQWFGLLLCQVQG	not soluble
AHHHHHHGSKVEKGDVIRLHYTGKVKETGEIFDTTYEDVAKEARIYNPNGIYGPVPIAVGAGHVLPGLDKRLIGLEVKKKYVIEVPPEEGFGLRDPGKIKIIPLGKFRKSGIIPYPGLEIEVETENGRKMRGRVLTVSGGRVRVDFNHPLAGKTLVYEVEVVEKIEDPIEKIKALIELRLPMIDKDKVIIEISEKDVKLNFKDVDIDPKTLILGEILLESDLKFIGYEKVEFEPTIEELLKPKSAEEQESPNEEQQEESESKAEES	not soluble
MSGRGEPTMKTIIVGIDGSHAAITAALWGVDEAISRAVPLRLVSVIKPTHPSPDDYDRDLAHAERSLREAQSAVEAAGKLVKIETDIPRGPAGPVLVEASRDAEMICVGSVGIGRYASSILGSTATELAEKAHCPVAVMRSKVDQPASDINWIVVRMTDAPDNEAVLEYAAREAKLRQAPILALGGRPEELREIPDGEFERRVQDWHHRHPDVRVYPITTHTGIARFLADHDERVQLAVIGGGEAGQLARLVGPSGHPVFRHAECSVLVVRR	not soluble
LDFATLPPEINSARMYSGAGSAPMLAAASAWHGLSAELRASALSYSSVLSTLTGEEWHGPASASMTAAAAPYVAWMSVTAVRAEQAGAQAEAAAAAYEAAFAATVPPPVIEANRAQLMALIATNVLGQNAPAIAATEAQYAEMWSQDAMAMYGYAGASAAATQLTPFTEPVQTTNASGLAAQSAAIAHATGASAGAQQTTLSQLIAAIPSVLQGLSSSTAATFASGPSGLLGIVGSGSSWLDKLWALLDPNSNFWNTIASSGLFLPSNTIAPFLGLLGGVAAADAAGDVLGEATSGGLGGALVAPLGSAGGLGGTVAAGLGNAATVGTLSVPPSWTAAAPLASPLGSALGGTPMVAPPPAVAAGMPGMPFGTMGGQGFGRAVPQYGFRPNFVARPPAAG	not soluble
MGSDKIHHHHHHMETRNLQRNPILLVHGITDTEAVFDQMAAYLRQMGWTVYTLNLVPNNGEAPLNVLAQQVADYVAANITPEQPFDLVGFSMGGIVSRYYVQRLGGISHVQRFVTISSPHYGTVIAYASQRPGCVQMRPNSLFLQDLNHDVQMLEELNFTSIWTPYDLMIVPTHSSKMPVGKELSIPVALHSWMLRDVRSIEAVAAALAEPINCDRRFEYIPNSSIHN	not soluble
MSIQHFRVALIPFFAAFCLPVFAHPETLVKVKDAEDQLGARVGYIELDLNSGKILESFRPEERFPMMSTFKVLLCGAVLSRIDAGQEQLGRRIHYSQNDLVEYSPVTEKHLTDGMTVRELCSAAITMSDNTAANLLLTTIGGPKELTAFLHNMGDHVTRLDRWEPELNEAIPNDERDTTMPVAMATTLRKLLTGELLTLASRQQLIDWMEADKVAGPLLRSALPAGWFIADKSGAGERGSRGIIAALGPDGKPSRIVVIYTTGSQATMDERNRQIAEIGASLIKHW	soluble
KIVAVTACPTGIAHTYMAADALMKAAPKHNVQIKVETQGAMGIENQLTPHDIAQADRVLIVSDIEIEQPGRFEGTRKIQIPIEEVLLNVDKVFL	not soluble
MRVEKAWFLADGAEAPEGLPEGGFREVALPHQWSLEGVEAEVGWYRLALPEAGPRRFLLSFGDYYQEAWLDGTYLGRHEGYFFPWVLELPKGKELFLRVSAPKEPLGVWPRFKRQIKGVFGQHDCRPGGTTARGQERGTGGLWGGVEVWAREEVALLGLAHRLFPRAGGWRLWVRLLVDAQRPFRERARLFLVPANFPGEALEREAVLEGEAGRAWREVVWDLPEMPLWEVWERGFPHLFRLEADLLGARLGVPLGFRTVEVDGEGWLLLNGKRLFLRGTNAIPTQWLAAYSEAMAQKDVALLKEANLNAVRVHAHVTHPAFYAACDREGVLVWQDFPLQWGYAPDEAFAQEALRQARAMVEVLGAHPSVYLWCAQNEPTHNRHALGPLLAAALRAADPTRPVKEASDFREHPYPGWYRGHYRDFLALPGAPLPSEFGAQALPRAELLRRVLGEAAWPPRWEVWAYHNFQPHETFRVARVEMGESLEEFVERSQDYQARLIEFAVHAYRRAKGKVVGYFQFMFVEPWEGITWAVLDVERVPKKGFFALKEASSPVLLSLVPYRERVEVGGPPCRRPGS	soluble
MSLLKCSICINDERITRILIVDGRPICKECKVFLEHPPDKEKIKKELEEILSKVDKAIVAYSGGKDSIVALYLAKEKYSIDVEAVMVDHGFIAPQAIKNAKNVAKYLDVPLTIIKRDYSDIFREALLKAKSPCRKCSRRTMEILRKYALKKGYRYMITGHELPFGHHPYRLMSGGIIQVRILSLMSEEERMKILKKLPVELPELPGYTSNCLILGPALQRFWERHGYSFEHRRIAALVRYGLLNKEKALKKVQKPEVPQWQWELVKKKLKLEDGFEGHHHHHH	soluble
MGHHHHHHSHMTNTNEAKPVNVLSAEVMITTAFQDADPMGVVYHGNYFRFFEKARHEMLEKIGYSYRDMMASGYVWPIIDTRVKYVKSIPYDHKIRVEATLTEWENRMRVDYVIYDAETNVRMTKAHTMQVAVSIETEEMCFVSPRIFTDKVEAYHNA	soluble
MLPEHLVSSHFRLSSPPPEATENSKNLPKGKTKLSDYEPDILISANAAGQHRNVLFEERDRHIKERLYCVAKIETFARLINALQAEGDIDAQTLSKILADKTAMINEKGNAIWLNLITRETDMPLFYSLEDKDERS	not soluble
MKSNKNEFLKLLTAYQGIIHKVNRIYFRSEADREDNFQETVYQLWRSFPALQNKEKPASWIYTVAINTSISKVRKDSRIEFRDSPPDGEPVDPWEQQEQDENWQRLVNALQKLNEIDKSIMLLYMEDYSYEEIAGIVGISSSAVGVKIHRLKGQLQKQFKK	not soluble
MGSSHHHHHHNFYDSDPHISELTPKSFDKAIHNTNYTSLVEFYAPWCGHCKKLSSTFRKAAKRLDGVVQVAAVNCDLNKNKALCAKYDVNGFPTLMVFRPPKIDLSKPIDNAKKSFSAHANEVYSGARTLAPIVDFSLSRIRSYVKKFVRIDTLGSLLRKSPKLSVVLFSKQDKISPVYKSIALDWLGKFDFYSISNKKLKQLTDMNPTYEKTPEIFKYLQKVIPEQRQSDKSKLVVFDADKDKFWEYEGNSINKNDISKFLRDTFSITPNEGPFSRRSEYIAYLKTGKKPIKKNHSS	soluble
LESALIEVNGKQQLRYEFLNDMLTQQNFQTNPIYAILHESIYCQDFASNWSAHRVRQTRPEFNYEPDQPFYFTGEMVFPWMFDQYVNLKPLKDAAEILAAKEDWAALYDQTQLAQNKVPVSCAVYADDMFVEMDISRETLALIPNSKAWITNEYEHNGLRADGERILDRLIAMGKQTAATLK	not soluble
MGSDKIHHHHHHMSTALFHHHSTLQDQLVAIHAALRASLPDIDRIAVAIYDTKTDALHTFIHSSDGRHPLDSYATTLTGVPSLAALATSGRIRVLNDLSPLALTGAHHTQVIAKAYRSSLTVPFYKGKALSGFLFFNSQQPDYFTSRRIDTLALAAEMICSRVIDTVISVEMLTSTIQIAKDISHFRDEETGAHLDRVANYARLIAETMGKEPSALPPGRHPVLDDEFAQMIFLFAPLHDIGKVAIPDHVLLKPGPLTPEERTIMRTHSDKGLAICRRILENVDFISGTQAAMLCDIVHAHHEAWDGSGYPRGLSGADIPLAAAIVTVADVFDALTSARPYKKPWSTEDAFAYLQEKSGQLFNPACVRAFLAHRDDVLAIRARFRDEVIPEAFQTPQTPQSKADKV	not soluble
MIYQPDENRYHTMEYRRCGRSGVKLPAISLGLWHNFGDTTRVENSRALLQRAFDLGITHFDLANNYGPPPGSAECNFGRILQEDFLPWRDELIISTKAGYTMWDGPYGDWGSRKYLIASLDQSLKRMGLEYVDIFYHHRPDPETPLKETMKALDHLVRHGKALYVGISNYPADLARQAIDILEDLGTPCLIHQPKYSLFERWVEDGLLALLQEKGVGSIAFSPLAGGQLTDRYLNGIPEDSRAASGSRFLKPEQITADKLEKVRRLNELAARRGQKLSQMALAWVLRNDNVTSVLIGASKPSQIEDAVGMLANRRFSAAECAEIDAILEGRF	not soluble
MLSRMRRKHFLSQTEHTFSRQEVSLWKEKQMICFMMNPSRKHIWASREEINMDHVVITIARQYGSGGRTVGKMLAERLGISFYDKQIIHMASDESGIDVNLFGKIEAGDKIKSSLFGNKSSIYKGDLVLPGNKDFISDENLFNYQAKVVNDLAEKESYVIVGRCVNYVFKDRPNTLRVFIHAPWEFRVEQASQKISGSREDVEKFLLKDDKRKQDYYRKFAGGQWSDATNYDLCLNSGKLGFDKCVDAIETQLKIMLGK	not soluble
MEKTVNPFRIGIAPISWVNDDIPGLGDHYTQDQVLSEMAELGYVATEMGRLFSQDPPSLRAKLNQYGIELASKFIGVLFSDRSRLEEELETFQSWAEYLHDMGCKYAIVCEMGGSMHWDPRRAPEEKTIQRLTDSEWESLVDGLHRAAHICQELGMKLVYHFHAGTVVETAEEIDRLMELTDPNLVHLLYDTGHALYGGYDPVELLHRYADRIQYVHLKDIRRDVLEQVRREQLDFRTAVLRGMFTVPGDGCIDFVPIFSKLIEMGYNGWIIVEAEQDPAVAHPYTYAKMAKEYIDRLVHHLLAAQKR	not soluble
